Values quoted from earlier work in publication PMC12386367, “Importin α3 Is Tolerant to Nuclear Localization Signal Chirality” (International Journal of Molecular Sciences, 2025).
Where two headings read alike, the source gives them in different places.

Assays:
Settings in all cases: cited from earlier work
[1] = molecular target: L-NLS-NUPR1phospho NLS (Homo sapiens) (UniProt O60356)
[2] = molecular target: L-NLS-NUPR1 NLS (Homo sapiens) (UniProt O60356)
[3] = molecular target: L-NLS-PADI NLS (Homo sapiens) (UniProt Q9UM07); experiment: ITC
[4] = molecular target: L-NLS-NUPR1L NLS (Homo sapiens) (UniProt A6NF83); experiment: fluorescence
L-NLS-NUPR1L NLS (Homo sapiens), sequence (A6NF83 60-80): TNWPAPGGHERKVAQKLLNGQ

[5] = molecular target: L-NLS-PADI NLS (Homo sapiens) (UniProt Q9UM07); experiment: fluorescence
[6] = molecular target: L-NLS-NUPR1 (Homo sapiens) (UniProt O60356); experiment: ITC
L-NLS-NUPR1 (Homo sapiens), sequence (O60356 54-74): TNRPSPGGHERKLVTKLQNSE

[7] = molecular target: L-NLS-NUPR1phospho (Homo sapiens) (UniProt O60356); experiment: ITC
[8] = molecular target: L-NLS-PADI (NLS2-PADI4) (Homo sapiens) (UniProt Q9UM07); experiment: ITC
L-NLS-PADI (NLS2-PADI4) (Homo sapiens), sequence (Q9UM07 498-526): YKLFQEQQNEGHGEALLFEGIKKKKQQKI

[9] = molecular target: L-NLS-NUPR1L (Homo sapiens) (UniProt A6NF83); experiment: fluorescence
L-NLS-NUPR1L (Homo sapiens), sequence (A6NF83 51-74): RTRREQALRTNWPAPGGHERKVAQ

[10] = molecular target: L-NLS-PADI (NLS2-PADI4) (Homo sapiens) (UniProt Q9UM07); experiment: fluorescence
[11] = molecular target: L-NLS-NUPR1phospho NLS (Homo sapiens) (UniProt O60356); remark: listed apart in the source
[12] = molecular target: L-NLS-NUPR1 NLS (Homo sapiens) (UniProt O60356); remark: listed apart in the source
[13] = molecular target: L-NLS-NUPR1L NLS (Homo sapiens) (UniProt A6NF83); experiment: ITC
[14] = molecular target: L-NLS-NUPR1L (Homo sapiens) (UniProt A6NF83); experiment: ITC

Importin α3, sequence (O00629 2-521): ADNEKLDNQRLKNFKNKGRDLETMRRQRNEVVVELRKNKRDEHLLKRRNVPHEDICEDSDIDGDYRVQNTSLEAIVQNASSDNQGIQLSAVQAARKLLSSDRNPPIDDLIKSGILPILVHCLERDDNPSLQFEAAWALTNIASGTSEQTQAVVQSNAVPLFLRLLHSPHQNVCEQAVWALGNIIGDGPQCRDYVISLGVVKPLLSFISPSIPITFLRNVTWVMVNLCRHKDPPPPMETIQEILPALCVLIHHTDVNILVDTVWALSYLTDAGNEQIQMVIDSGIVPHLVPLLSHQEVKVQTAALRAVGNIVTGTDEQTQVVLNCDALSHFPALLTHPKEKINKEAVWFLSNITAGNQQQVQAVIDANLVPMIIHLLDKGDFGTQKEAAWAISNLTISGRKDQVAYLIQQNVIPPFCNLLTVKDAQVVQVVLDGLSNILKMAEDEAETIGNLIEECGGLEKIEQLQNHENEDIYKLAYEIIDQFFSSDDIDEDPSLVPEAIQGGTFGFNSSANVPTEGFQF

Row | Substance | Kd [1] [µM] | Kd [2] [µM] | Kd [3] [µM] | Kd [4] [µM] | Kd [5] [µM] | Kd [6] [µM] | Kd [7] [µM] | Kd [8] [µM] | Kd [9] [µM] | Kd [10] [µM] | Kd [11] [µM] | Kd [12] [µM] | Kd [13] [µM] | Kd [14] [µM]
1 | Importin α3 (from UniProt O00629) | 27 | 1.7 | 23 | 3 | 4 | – | – | – | – | – | – | – | – | –
2 | importin α3 (Impα3) 1-521 (from UniProt O00629) | – | – | – | – | – | 1.7 | 27 | 23 | 3 | 4 | – | – | – | –
3 | ∆Importin α3 IBB-deleted (from UniProt O00629) | – | – | 4.37 | – | 4 | – | – | – | – | – | 29 | 0.95 | 5.5 | –
4 | ∆Impα3 64-521 (from UniProt O00629) | – | – | – | – | – | 0.95 | 29 | 4.37 | – | 4 | – | – | – | 5.5
